Reference: patent US20120282183A1 (CANCER RESEARCH TECHNOLOGY, published 2012)

Biological target: T1, human 5T4 oncofoetal glycoprotein (human, UniProt Q13641 32-420)
T1 construct: whole, on cells; also called h5T4; trophoblast glycoprotein
T1 sequence (looked up): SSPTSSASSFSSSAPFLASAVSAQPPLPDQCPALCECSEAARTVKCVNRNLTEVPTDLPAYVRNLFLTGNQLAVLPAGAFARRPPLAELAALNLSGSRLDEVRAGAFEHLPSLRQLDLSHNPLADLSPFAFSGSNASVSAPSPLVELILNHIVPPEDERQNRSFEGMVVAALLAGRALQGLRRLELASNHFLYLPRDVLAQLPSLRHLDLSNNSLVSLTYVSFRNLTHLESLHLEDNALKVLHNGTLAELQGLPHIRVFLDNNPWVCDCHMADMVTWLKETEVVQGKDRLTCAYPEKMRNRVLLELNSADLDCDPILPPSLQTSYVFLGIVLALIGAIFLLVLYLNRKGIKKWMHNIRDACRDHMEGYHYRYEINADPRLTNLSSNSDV
Experiment: summary of the pull down and Western blot experiments
Procedure: Denistometric scans of western blots between approximately 60-140 kDa (5T4 probe) and 30-140 kDa (CXCR4 probe). […] Under reducing conditions, the epitope recognized by 5T4 antibodies is destroyed but CXCR4 at 46 kD is detectable on the reduced gels of the 5T4 pulldown, (not shown). Thus, specific pull downs but not the controls, probed with either anti-CXCR4 or anti-5T4 detected molecules migrating ≈130 kDa in all the tumor lines.
Western blots were carried out using a BioRad Mini-PROTEAN Tetra (Thermo Fisher) supplemented with protease and phosphatase inhibitor cocktails (Thermo Fisher). RIPA buffer (50 mM Tris-Cl pH 7.4, 150 mM NaCl, 1% NP40, 0.25% Na-deoxycholate, 1 mM PMSF and protease and phosphatase inhibitor cocktail) was used as an alternative method of cell lysis. The compound PD98059 (Thermo Fisher) was applied to cells to inhibit MEK1 at 100 μM for 1 h prior to CXCL12 stimulation. Other primary antibodies used were ERK1/2, phospho-ERK1/2 (Thr202/Tyr204/Thr185/Tyr187), AKT and phospho-AKT (Thr308) (Cell Signalling Technology) at 1:1000. Following secondary antibody labelling using appropriate HRP conjugates (AbSerotec) hybridizing bands were detected using SuperSignal West Dura (Thermo Fischer). […]

- binding result: binds
B1: human CXCR4 (receptor, UniProt P61073 1-352, looked up)
chain: MEGISIYTSDNYTEEMGSGDYDSMKEPCFREENANFNKIFLPTIYSIIFLTGIVGNGLVILVMGYQKKLRSMTDKYRLHLSVADLLFVITLPFWAVDAVANWYFGNFLCKAVHVIYTVNLYSSVLILAFISLDRYLAIVHATNSQRPRKLLAEKVVYVGVWIPALLLTIPDFIFANVSEADDRYICDRFYPNDLWVVVFQFQHIMVGLILPGIVILSCYCIIISKLSHSKGHQKRKALKTTVILILAFFACWLPYYIGISIDSFILLEIIKQGCEFENTVHKWISITEALAFFHCCLNPILYAFLGAKFKTSAQHALTSVSRGSSLKILSKGKRGGHSSVSTESESSSFHSS
notes: whole, on cells; Endogenous CXCR4 of human tumour cell lines, tested as unreduced solubilised membrane fractions (Western blot, pull down); also called chemokine (C-X-C motif) receptor 4
